What all share (format): cell-based
In data set [1] the test system is GFP expression in HEK 293 cells. The experiment in a line: GFP fluorescence intensity of transfected HEK 293 cells. The note with it: ribozyme in 3′ UTR of EGFP; for fold reduction (suppression) of GFP expression / reduction (inhibition/suppression) of GFP expression: compared to pEGFP-C1 control. The text has this:
Plasmid constructs: oligonucleotides containing wild type or mutant twister ribozyme sequences, either from Nasonia Vitripennis (wasp) or from environmental samples, flanked by BsrGI and MfeI sites, were synthesized (IDT). The synthesized oligonucleotides (“oligos”) were digested with BsrGI and MfeI and cloned into pEGFP-C1 (Clontech) digested with the compatible restriction enzymes. The sequences of the constructed vectors were verified by DNA sequencing (Genewiz).
Transfection and measurement of GFP fluorescence: 3.5×10^4 HEK 293 cells were plated in a 96-well flat bottom plate the day before transfection. Plasmid DNA (500 ng) was added to a tube or a 96-well U-bottom plate. Separately, TransIT-293 reagent (Mirus; 1.4 μl) was added to 50 μl Opti-mem I media (Life Technologies), and allowed to sit for 5 minutes at room temperature (“RT”). Then, 50 μl of this diluted transfection reagent was added to the DNA, mixed, and incubated at RT for 20 min. Finally, 7 μl of this solution was added to a well of cells in a 96-well plate. […] GFP fluorescence intensity was measured by Tecan plate reader, using Excitation wavelength at 484 nm, Emission wavelength at 510 nm and Excitation bandwidth at 5 nm. The GFP fluorescence intensity was expressed as the value generated by GFP constructs subtracted by the value generated by LacZ construct.
Measurement of GFP fluorescence intensity was performed as described in Example 1.

The subject of data set [2] is firefly luciferase expression in HEK 293 cells. Nature of the data set: Firefly luciferase assay of transfected HEK 293 cells treated with or without guanine or guanosine. The settings on record: riboswitch and linker2A downstream of start codon, guanine vs untreated control. Here is the method: Firefly luciferase assay of cultured cells: 24 hours after media change, plates were removed from the incubator, equilibrated to RT for several minutes on a lab bench, and then aspirated. Glo-lysis buffer (Promega, 100 μL, RT) was added, and the plates allowed to remain at RT for at least 5 minutes. The well contents were mixed by 50 μL trituration, and 20 μL of each sample was mixed with 20 μL of bright-glo reagent (Promega) that had been diluted to 10% in glo-lysis buffer. 96 wells were spaced on an opaque white 384-well plate. Following a 5-minute incubation at RT, luminescence was measured using a Tecan machine with 500 mSec read time. The luciferase activity was expressed as mean relative light unit (RLU)±S.D. […]
Transfection and aptamer ligand treatment: HEK 293 cells were transfected as described in Example 1. Four hours after transfection, the media was aspirated, and new media with or without 500 μM guanine or 1 mM guanosine (Sigma) was added. Luciferase assay was performed 20 to 24 hours after guanine or guanosine treatment as described in Example 2. The reduction fold was expressed as the quotient of luciferase activity obtained in the absence of aptamer ligand divided by the value obtained in the presence of the aptamer ligand.
Oligos containing either a start codon or coding sequence for the first 10 amino acids of GFP and waspGua16 followed by a linker2A sequence were synthesized (IDT) and cloned into the pLuc vector using the Gibson cloning strategy and cloning kit (NEB). Transfection and luciferase assay of cultured cells were performed as described in Example 3. […]

For data set [3] the test system is unchanged. The experiment in a line: Firefly luciferase assay of HEK 293 cells transfected with twister ribozyme constructs (no ligand). The note with it: twister in 3′ UTR of firefly luciferase, compared to pFLuc control construct. From the text:
Plasmid constructs: The following primers were used to generate constructs GFP_wasp_No Sac 0HP or GFP_wasp_No Sac 3HP: forward primers NoSac_Fwd (5′ […]) and NoSac3HP_Fwd (5′ […]) and reverse primer MfeI Rev (5′ […]). GFP_wasp-twister vector was used as template and the PCR-amplified DNA fragments were digested with BsrGI and MfeI and cloned into pEGFP-C1 digested with BsrGI and MfeI enzymes. The EGFP gene in pEGFP-C1 was replaced with the firefly luciferase gene to generate the pFLuc vector using Gibson cloning strategy and cloning kit (NEB). The same strategy was used to generate constructs Luc_wasp_No Sac 0HP and Luc_wasp_No Sac 3 HP by replacing the EGFP gene in constructs GFP_wasp_no Sac 0HP and GFP_wasp_no Sac 3HP with the firefly luciferase gene.
Firefly luciferase assay of cultured cells: 24 hours after media change, plates were removed from the incubator, equilibrated to RT for several minutes on a lab bench, and then aspirated. Glo-lysis buffer (Promega, 100 μL, RT) was added, and the plates allowed to remain at RT for at least 5 minutes. […] Following a 5-minute incubation at RT, luminescence was measured using a Tecan machine with 500 mSec read time. The luciferase activity was expressed as mean relative light unit (RLU)±S.D.

Consider eight molecules from US12359199B2, “Regulation of gene expression via aptamer-mediated control of self-cleaving ribozymes” (MEIRAGTX UK II LIMITED, priority 2016, dated 2025).

Substitutions are numbered along the chain they refer to.

B1: GFP_wasp_no Sac 0HP: GFP wasp-twister construct with SacII sequence at 5′ end of twister deleted (nucleic acid)
DNA: GTGACCGCCGCCGGGATCACTCTCGGCATGGACGAGCTGTACAAGTAAACTTGTAATGCGGCCGTGTAAATAATTTACACGTCGGTCTCAAGCCCGATAAACGCAGAGAGCAAGGCGGCCGCCATACCACATTTGTAGAGGTTTTACTTGCTTTAAAAAACCTCCCACACCTCCCCCTGAACCTGAAACATAAAATGAATGC
modifications: misc_feature 1..202 wasp_no Sac 0HP in pEGFP-C1
Regarding B1, the “fold reduction (suppression) of GFP expression” value (shortened to “fold reduction (suppression)”) in data set [1] was 68 fold.

B2: ATG_waspGua16: waspGua16 and linker2A inserted downstream of ATG and upstream of remaining luciferase coding sequence (nucleic acid)
DNA: ATGACGCCTTGTAATGCGGCATATAATCGCGTGGATATGGCACGCAAGTTTCTACCGGGCACCGTAAATGTCCGACTATTCGGTCTCAAGCCCGATAAACGCAGAGAGCAAGGCGAAGGCGGATCTTCAGGTAGTGGCGAGGGCAGAGGAAGTCTTCTAACATGCGGTGACGTGGAGGAGAATCCCGGCCCCGAAGACGCCAAAAACATAAAGAAAGGCCCGGCGCCA
modifications: misc_feature 1..228 ATG_wtWaspGua16 in pLuc
Take B2: in data set [2], the “reduction of luciferase gene expression in the presence of guanine” value turned out to be 68%.

B3: wasp-twister: Twister ribozyme sequence from N. vitripennis cloned into the 3′ UTR in pEGFP-C1 vector (nucleic acid)
DNA: GTGACCGCCGCCGGGATCACTCTCGGCATGGACGAGCTGTACAAGTAAACCGCGGCTTGTAATGCGGCCGTGTAAATAATTTACACGTCGGTCTCAAGCCCGATAAACGCAGAGAGCAAGGCGGCCGCCATACCACATTTGTAGAGGTTTTACTTGCTTTAAAAAACCTCCCACACCTCCCCCTGAACCTGAAACATAAAATGAATGC
modifications: misc_feature 1..208 wasp-twister in pEGFP-C1
Take B3: the “effect on GFP expression (in words)” value in data set [1] is “reduced expression of GFP”. Besides, the “fold reduction (suppression)” value was 36 fold in data set [1], 37 fold in data set [1] (listed as GFP-twister), ~36 fold in data set [1] (listed as Wasp-twister) and 44 fold in data set [1] (listed as wild type twister ribozyme). The “reduction (inhibition/suppression) of GFP expression” value in data set [1] is 97%; in data set [1] (listed as Wasp-twister), “approximately 97%”.

B4: wasp-twister Mutant: Cleavage-incapable mutant wasp twister, A6 replaced with G, in 3′ UTR of pEGFP-C1 (nucleic acid)
DNA: B3 DNA with A61G
modifications: misc_feature 1..208 wasp-twister-mut in pEGFP-C1
notes: Cleavage-incapable mutant wasp twister, A6 replaced with G, in 3′ UTR of pEGFP-C1
Turning to B4, the “effect on GFP expression (in words)” value is reported as “did not cause a reduction in GFP expression” in data set [1] and “completely abolished the suppression in GFP expression” in data set [1] (listed as A6G mutation).

B5: es-twister: Twister ribozyme sequence from environmental sample cloned into the 3′ UTR in pEGFP-C1 vector (nucleic acid)
DNA: GTGACCGCCGCCGGGATCACTCTCGGCATGGACGAGCTGTACAAGTAAACCGCGGCAATAAAGCGGTTACAAGCCCGCAAAAATAGCAGAGTAATGTCGCGATAGCGCGGCATTAATGCAGCTTTATTGGCGGCCGCCATACCACATTTGTAGAGGTTTTACTTGCTTTAAAAAACCTCCCACACCTCCCCCTGAACCTGAAACATAAAATGAATGC
modifications: misc_feature 1..217 es-twister in pEGFPC1
As to B5, in data set [1], the “effect on GFP expression (in words)” value is reported as “significantly reduced target gene expression” and the “reduction (inhibition/suppression) of GFP expression” value is given as “about 50%”.

B6: 10aa_waspGua16: waspGua16 and linker2A inserted downstream of the coding sequence for the first 10 amino acids of GFP, in pLuc (nucleic acid)
DNA: ATGGTGAGCAAGGGCGAGGAGCTGTTCACCACGCCTTGTAATGCGGCATATAATCGCGTGGATATGGCACGCAAGTTTCTACCGGGCACCGTAAATGTCCGACTATTCGGTCTCAAGCCCGATAAACGCAGAGAGCAAGGCGAAGGCGGATCTTCAGGTAGTGGCGAGGGCAGAGGAAGTCTTCTAACATGCGGTGACGTGGAGGAGAATCCCGGCCCCGAAGACGCCAAAAACATAAAGAAAGGCCCGGCGCCA
modifications: misc_feature 1..255 10aa_wtWaspGua16 in pLuc
For the molecule B6, the “reduction of luciferase gene expression in the presence of guanine” value in data set [2] is recorded as 68%.

B7: GFP_wasp_no Sac 3HP: GFP wasp-twister construct with SacII site replaced by CGC creating 3 base pair stem (3HP) at P1 stem (nucleic acid)
DNA: GTGACCGCCGCCGGGATCACTCTCGGCATGGACGAGCTGTACAAGTAAACGCCTTGTAATGCGGCCGTGTAAATAATTTACACGTCGGTCTCAAGCCCGATAAACGCAGAGAGCAAGGCGGCCGCCATACCACATTTGTAGAGGTTTTACTTGCTTTAAAAAACCTCCCACACCTCCCCCTGAACCTGAAACATAAAATGAATGC
modifications: misc_feature 1..205 wasp_no Sac 3HP in pEGFP-C1
notes: GFP wasp-twister construct with SacII site replaced by CGC creating 3 base pair stem (3HP) at P1 stem
For B7, in data set [1], the “fold reduction (suppression)” value was 104 fold.

B8: Luc_wasp_No Sac 0HP: Firefly luciferase construct with wasp twister without SacII sequence in 3′ UTR (nucleic acid)
DNA: TCAGAGAGATCCTCATAAAGGCCAAGAAGGGCGGAAAGATCGCCGTGTAAACTTGTAATGCGGCCGTGTAAATAATTTACACGTCGGTCTCAAGCCCGATAAACGCAGAGAGCAAGGCGGCCGCCATACCACATTTGTAGAGGTTTTACTTGCTTTAAAAAACCTCCCACACCTCCCCCTGAACCTGAAACATAAAATGAATG
modifications: misc_feature 1..203 wasp_No Sac 0HP in pLuc
Take B8: the “fold reduction of luciferase activity” value in data set [3] amounted to 101 fold.
